In paper doi:10.1101/197186 (bioRxiv, 2017):

Target: the molecule itself
Test: SEC

B1: human MORC2(1-603) S87L (domain or fragment)
chain: MAFTNYSSLNRAQLTFEYLHTNSTTHEFLFGALAELVDNARDADATRIDIYAERREDLRGGFMLCFLDDGAGMDPSDAASVIQFGKLAKRTPESTQIGQYGNGLKSGSMRIGKDFILFTKKEDTMTCLFLSRTFHEEEGIDEVIVPLPTWNARTREPVTDNVEKFAIETELIYKYSPFRTEEEVMTQFMKIPGDSGTLVIIFNLKLMDNGEPELDIISNPRDIQMAETSPEGTKPERRSFRAYAAVLYIDPRMRIFIHGHKVQTKRLSCCLYKPRMYKYTSSRFKTRAEQEVKKAEHVARIAEEKAREAESKARTLEVRLGGDLTRDSRVMLRQVQNRAITLRREADVKKRIKEAKQRALKEPKELNFVFGVNIEHRDLDGMFIYNCSRLIKMYEKVGPQLEGGMACGGVVGVVDVPYLVLEPTHNKQDFADAKEYRHLLRAMGEHLAQYWKDIAIAQRGIIKFWDEFGYLSANWNQPPSSELRYKRRRAMEIPTTIQCDLCLKWRTLPFQLSSVEKDYPDTWVCSMNPDPEQDRCEASEQKQKVPLGTFRKDMKTQEEKQKQLTEKIRQQQEKLEALQKTTPIRSQADLKKLPLEVTTRPST
stoichiometry N: 2
